Test results published in patent US12428492B2, “Chimeric antigen receptors that bind to prostate specific membrane antigen” (Albert-Ludwigs-Universitaet Freiburg, priority 2019, dated 2025).

How the values were obtained:
[1] = system: PSMA positive C4-2 and LNCaP tumor cells; assay: Antigen-specific activation (CD69) of CAR expressing Jurkat cells by PSMA positive tumor cells; type: cell-based
Description: Panel (C) presents the antigen-specific-activation profile, CAR expressing Jurkat cells were stimulated for 24 h at an 1:1 effector-to-target ratio with either PSMA positive, PD-L1 negative C4-2 tumor cells (PSMA+/PDL1−), or PSMA positive, PD-L1 positive LNCaP tumor cells (PSMA+/PDL1+). As a negative control, CAR cells were co-cultured with PSMA negative DU145 tumor cells (PSMA−). Following 24 h stimulation, cells were harvested and activation profile was assessed by evaluating the percentage of cells that are positive for the activation marker CD69. Statistically significant differences are indicated by ****(P<0.001).
Panel (D) depicts the characterization of employed prostate cancer cell lines. The extent of PSMA target antigen expression (left) and PD-L1 (CD274) expression (right) was assessed on C4-2, LNCaP and DU145 prostate cell lines. For flow cytometric analysis, cells were either stained with 3/F11 1 antibody (anti-PSMA) or an anti-CD274 antibody. UT, untransduced T cells; PD-L1, Programmed cell death ligand 1; PSMA; prostate specific membrane antigen. As shown in panel D (left), both C4-2 and LNCaP tumor cells express the PSMA antigen while the DU145 is negative for the PSMA antigen. […]
The antigen-specific activation of transduced Jurkat T cells was measured by monitoring the expression of the activation marker CD69 upon antigen stimulation FIG. 9C. […]

PSMA-expressing cells = PSMA-expressing cells (Homo sapiens, UniProt Q04609); conditions: cited from earlier work
PSMA-expressing cells, sequence (Q04609 whole entry): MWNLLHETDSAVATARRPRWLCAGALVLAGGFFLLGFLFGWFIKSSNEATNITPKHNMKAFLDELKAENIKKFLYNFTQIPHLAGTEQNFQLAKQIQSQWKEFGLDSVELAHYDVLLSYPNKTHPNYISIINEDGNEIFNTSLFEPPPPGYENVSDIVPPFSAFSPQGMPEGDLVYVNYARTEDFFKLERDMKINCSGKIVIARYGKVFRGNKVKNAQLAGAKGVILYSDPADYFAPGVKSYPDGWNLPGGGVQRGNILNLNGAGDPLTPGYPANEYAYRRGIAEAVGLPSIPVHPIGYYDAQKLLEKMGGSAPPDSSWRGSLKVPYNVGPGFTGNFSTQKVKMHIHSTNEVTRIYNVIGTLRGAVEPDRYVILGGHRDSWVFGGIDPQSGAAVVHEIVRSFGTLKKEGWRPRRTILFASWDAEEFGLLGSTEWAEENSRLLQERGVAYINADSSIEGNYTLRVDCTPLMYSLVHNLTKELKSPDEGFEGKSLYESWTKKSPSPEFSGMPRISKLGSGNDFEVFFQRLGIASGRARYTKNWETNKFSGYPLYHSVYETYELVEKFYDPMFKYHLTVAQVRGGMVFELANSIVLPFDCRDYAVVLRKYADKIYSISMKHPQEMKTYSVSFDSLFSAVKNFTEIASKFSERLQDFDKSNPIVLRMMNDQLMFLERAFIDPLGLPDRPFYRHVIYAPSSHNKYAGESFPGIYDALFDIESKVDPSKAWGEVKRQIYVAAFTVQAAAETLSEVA

| Molecule | CD69-positive cells ([1]; 24 h, 1:1 effector-to-target ratio, C4-2 or LNCaP) | activation of Jurkat cells upon antigen-specific sensitization ([1]; CD69) | Kd (PSMA-expressing cells) |
| --- | --- | --- | --- |
| A5-based CAR: 2nd generation anti-PSMA CAR: scFv A5, Fc IgG1 hinge, transmembrane domain, CD28 costimulatory domain, CD3ζ; SEQ ID NO:39 (protein, A5CAR28) MDFQVQIFSFLLISASVIMSRDVKLVESGGGLVKPGESLKLSCIASGFTFSDYYMYWVRQTPEKRLEWVAIISDGGYYTYYSDIIKGRFTISRDNAKNNLYLQMSSLKSEDTAMYYCTRGFPLLRHGAMDYWGLGTSVTVSSGGGGSGGGGSGGGGSDIQMTQSPKFMSTSVGDRVSVTCKASQNVDTNVAWYQQKPGQSPKALIYSASYRYSDVPDRFTGSESGTDFTLTISNVQSEDLAEYFCQQYDSYPYTFGGGTKLEIKSDPAEPKSPDKTHTCPPCPAPPVAGPSVFLFPPKPKDTLMIARTPEVTCVVVDVSHEDPEVKFNWYVDGVEVHNAKTKPREEQYNSTYRVVSVLTVLHQDWLNGKEYKCKVSNKALPAPIEKTISKAKGQPREPQVYTLPPSRDELTKNQVSLTCLVKGFYPSDIAVEWESNGQPENNYKTTPPVLDSDGSFFLYSKLTVDKSRWQQGNVFSCSVMHEALHNHYTQKSLSLSPGKKDPKFWVLVVVGGVLACYSLLVTVAFIIFWVRSKRSRLLHSDYMNMTPRRPGPTRKHYQAYAAARDFAAYRSLRVKFSRSADAPAYQQGQNQLYNELNLGRREEYDVLDKRRGRDPEMGGKPRRKNPQEGLYNELQKDKMAEAYSEIGMKGERRRGKGHDGLYQGLSTATKDTYDALHMQALPPR | about 70% | massive activation |  |
| A5: single-chain variable fragment generated by phage display from mAb 3/A12; SEQ ID NO:42 (protein, listed as Mus musculus, murine scFv A5) scFv: DVKLVESGGGLVKPGESLKLSCIASGFTFSDYYMYWVRQTPEKRLEWVAIISDGGYYTYYSDIIKGRFTISRDNAKNNLYLQMSSLKSEDTAMYYCTRGFPLLRHGAMDYWGLGTSVTVSSGGGGSGGGGSGGGGSDIQMTQSPKFMSTSVGDRVSVTCKASQNVDTNVAWYQQKPGQSPKALIYSASYRYSDVPDRFTGSESGTDFTLTISNVQSEDLAEYFCQQYDSYPYTFGGGTKLEIK |  |  | ~33 nM |
